Source: US20190119347A1 (HANMI PHARM, published 2019)
Bridge positions count the residues as written; N and C are the ends. Square brackets hold non-standard residues; d marks the D form. Ends that are not written are not given here. Aib = CC(C)(N)C(=O)O

Biological target: human glucagon receptor (human, UniProt P47871 26-477)
Assay: cell-based or functional assay

human glucagon receptor, sequence (P47871 26-477): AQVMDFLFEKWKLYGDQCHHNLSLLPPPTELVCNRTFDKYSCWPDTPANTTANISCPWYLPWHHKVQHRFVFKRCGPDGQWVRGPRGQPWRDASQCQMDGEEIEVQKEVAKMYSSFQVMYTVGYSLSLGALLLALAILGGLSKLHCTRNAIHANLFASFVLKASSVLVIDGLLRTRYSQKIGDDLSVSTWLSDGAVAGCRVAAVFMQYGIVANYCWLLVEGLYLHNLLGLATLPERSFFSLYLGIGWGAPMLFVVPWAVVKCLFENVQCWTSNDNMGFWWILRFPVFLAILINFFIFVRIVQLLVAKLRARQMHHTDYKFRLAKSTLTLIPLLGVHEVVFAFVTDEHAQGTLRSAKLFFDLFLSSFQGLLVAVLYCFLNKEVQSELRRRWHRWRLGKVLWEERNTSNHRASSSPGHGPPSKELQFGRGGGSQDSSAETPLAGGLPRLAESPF

B1: glucagon derivative of SEQ ID NO: 37 (peptide)
peptide: Y[Aib]QGTFTSDYSKYLDERRAKEFVQWLMNTC
modifications: lactam 16-20
With B1 the “In vitro Activity (Relative Activity to SEQ ID NO: 1, %); cAMP assay, from EC50” value was 776%.
